Values of other authors, collected in article PMC2726996.

Tests used:
[1] = molecular target: EGFR (high-affinity sites) (Homo sapiens) (UniProt P00533)
[2] = molecular target: EGFR (low-affinity sites) (Homo sapiens) (UniProt P00533)

Kd [1]: < 0.0001 µM
Kd [2]: 0.01 µM
Substance: EGF (from UniProt P01133)
